One data set addresses T1, huB7-H3 (Homo sapiens, UniProt Q5ZPR3).
T1 construct: His tag (6xHis) (C)
T1 sequence (Q5ZPR3 with tags, fused parts or gaps): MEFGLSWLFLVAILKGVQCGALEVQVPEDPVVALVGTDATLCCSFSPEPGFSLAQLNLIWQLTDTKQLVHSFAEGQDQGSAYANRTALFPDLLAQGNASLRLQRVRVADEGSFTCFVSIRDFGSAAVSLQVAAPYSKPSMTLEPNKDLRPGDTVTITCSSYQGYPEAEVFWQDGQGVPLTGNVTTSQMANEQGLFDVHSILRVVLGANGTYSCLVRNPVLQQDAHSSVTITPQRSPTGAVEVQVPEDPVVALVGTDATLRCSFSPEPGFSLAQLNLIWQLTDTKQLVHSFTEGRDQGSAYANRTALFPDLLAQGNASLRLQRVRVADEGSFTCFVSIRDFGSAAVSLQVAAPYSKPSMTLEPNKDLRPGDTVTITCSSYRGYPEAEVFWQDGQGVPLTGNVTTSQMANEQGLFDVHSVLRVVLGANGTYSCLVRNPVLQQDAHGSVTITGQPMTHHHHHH
Description: Biacore T200 SPR binding kinetics, mAb capture. The note with it: Table 3. As for the experimental part: The binding affinity of the purified anti-B7-H3 monoclonal antibodies was determined by surface […]. […] The binding kinetics were derived from SPR measurements using a Biacore T200 instrument and a mAb capture approach (as described in the materials and methods below).
Biacore T200 SPR instruments were used to measure the binding kinetics of human B7-H3 (4Ig-B7-H3 variant) (analyte) binding to various mAbs (ligands). The assay format was Fc-based capture via immobilized anti-mouse (Fc) (Pierce 31170) or immobilized anti-human (Fc) (Pierce 31125). A standard amine coupling protocol was employed to immobilize the capture reagents via primary amines to the carboxy-methyl (CM) dextran surface of CM5 sensorchips (Biacore); capture antibodies were coupled to a level of approximately 5000 RU. For binding kinetic measurements the assay buffer was HBS-EP+(Biacore): 10 mM Hepes, pH7.4, 150 mM NaCl, 3 mM EDTA, 0.05% polysorbate 20. During the assay, all measurements were referenced against the capture surface alone. Each assay cycle consisted of the following steps: 1) Capture of ligand to approximately 50 RU; 2) Analyte injection over both reference and test surface, 240 μL at 80 μL/min, after which the dissociation was monitored for 900 seconds at 80 μL/min; 3) Regeneration of capture surface with low pH glycine. For kinetic determinations analyte injections were 3-point, 9-fold dilution series of 900 nM, 100 nM and 11.11 nM, buffer only injections were included for secondary referencing. Data were processed and fit to a 1:1 binding model using Biacore T200 Evaluation Software to determine the binding kinetic rate constants, ka (on-rate) and kd (off-rate), and the equilibrium dissociation constant (affinity, KD).
(In general: In SPR one partner is held on a chip, and binding of the other changes the refractive index at the surface.)

For the next data set, the target named is T2, human B7-H3 (Homo sapiens, UniProt Q5ZPR3).
T2 construct: His tag (6xHis) (C)
T2 sequence (Q5ZPR3 with tags, fused parts or gaps): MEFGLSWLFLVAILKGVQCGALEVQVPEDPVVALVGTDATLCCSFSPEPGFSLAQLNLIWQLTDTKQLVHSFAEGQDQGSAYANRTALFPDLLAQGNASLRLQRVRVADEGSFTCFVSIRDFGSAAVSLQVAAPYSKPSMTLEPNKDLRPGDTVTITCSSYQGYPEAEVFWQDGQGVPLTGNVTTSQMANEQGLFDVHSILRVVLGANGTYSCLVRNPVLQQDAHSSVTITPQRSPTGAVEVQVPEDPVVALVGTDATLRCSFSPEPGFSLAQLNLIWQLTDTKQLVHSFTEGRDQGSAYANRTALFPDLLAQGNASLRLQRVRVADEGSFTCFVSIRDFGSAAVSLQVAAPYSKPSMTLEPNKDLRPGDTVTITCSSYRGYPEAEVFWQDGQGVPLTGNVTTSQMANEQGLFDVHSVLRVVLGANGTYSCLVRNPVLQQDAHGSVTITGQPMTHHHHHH
The data set is described as follows: Epitope grouping by pair-wise Biacore SPR binding. Particulars: simultaneous binding assay, FIG. 1. The text has this: Pair-wise binding assays performed on Biacore T200 SPR instruments were used to determine the relative epitope grouping for the murine anti-B7-H3 mAbs as described in the methods below. […] Epitope groups are represented as individual ovals, some of which overlap with each other. Antibodies in different epitope groups can bind to B7-H3 simultaneously and likely bind to different epitopes while antibodies within a given epitope group cannot bind to B7-H3 simultaneously and likely bind to overlapping epitopes. The grouping information was derived from a simultaneous binding assay as described in materials and methods. Ab3, Ab4, Ab5, Abl 1, Ab12, and Ab8 groupings were ambiguous
Pair-wise binding assays performed on Biacore T200 SPR instruments were used to determine the relative epitope grouping for a series of anti-B7-H3 mAbs. The assay format was Fc-based capture via immobilized anti-mouse (Fc) (Pierce 31170) or immobilized anti-human (Fc) (Pierce 31125). A standard amine coupling protocol was employed to immobilize the capture reagents via primary amines to the carboxy-methyl (CM) dextran surface of CM5 sensorchips (Biacore); capture antibodies were coupled to a level of approximately 2000 RU. Epitope grouping measurements were done at 12° C. (low temperature allows for grouping information on fast off-rate mAbs), the assay buffer was HBS-EP+(Biacore): 10 mM Hepes, pH7.4, 150 mM NaCl, 3 mM EDTA, 0.05% polysorbate 20. Each assay cycle consisted of the following steps in a four flowcell system: 1) separate test mAbs were captured in flowcells 2, 3 & 4 (flowcell 1 was reference, no test mAb); 2) all 4 flowcells were then blocked by injection with isotype control mAb or isotype mAb cocktail at 50 μg/mL; 3) all 4 flowcells were then injected with antigen or buffer only (buffer only is for double referencing, done for each mAb pair individually); 4) all 4 flowcells were then injected with 2nd test mAb at 10 μg/mL; 5) all 4 flowcells were then regenerated with glycine, pH1.5. The assay was done for each test mAb pair in reciprocal orientations. Simultaneous binding was evaluated examining the ratio of the 2nd test mAb response to the Ag response (RUmAb2/RUAg); if this ratio was equal to or greater than 0.2 the interaction was scored as a simultaneous binder. From this pair-wise binding assay data a “venn” style diagram was constructed manually to depict relative epitope groupings.

The next data set deals with HCC38 cell line. The data set is described as follows: In vitro cell viability assay (CellTiter-Glo), HCC38. In kind it is cell-based, human. Particulars: conjugated to synthon CZ. As for the experimental part:
The tumor cell lines HCC38 (breast cancer), NCI-H1650 (NSCLC) and NCI-H847 (small cell lung cancer cell line) were obtained from American Type Culture Collection (ATCC). Cells were grown in 96-well culture plates using recommended growth media overnight at a density of 5×10^3 (HCC38) or 20×10^3 (NCI-H847) or 40×10^3 (NCI-H1650) per well. The following day, treatments were added in fresh media to triplicate wells. Cellular viability was determined 5 days later using the CellTiter-Glo Luminescent Cell Viability Assay kit (Promega), as directed in the manufacturer's protocol. Cell viability was assessed as percentage of control untreated cells.
Background: In ATP-based viability assays light output follows the ATP content of the culture.

Data set [1] in a line: Conjugation observation (precipitation after conjugation, Method A). It counts as physicochemical. Particulars: conjugated to synthon CZ. On the procedure: Table 6 provides cell surface binding and cytotoxicity activity of anti-B7-H3 chimera ADCs against breast cancer cell HCC38 expressing human B7-H3.
A solution of Bond-Breaker™ tris(2-carboxyethyl)phosphine (TCEP) solution (10 mM, 0.017 mL) was added to a solution of antibody (10 mg/mL, 1 mL) preheated to 37° C. The reaction mixture was kept at 37° C. for 1 hour. The solution of reduced antibody was added to a solution of synthon (3.3 mM, 0.160 mL in DMSO) and gently mixed for 30 minutes. The reaction solution was loaded onto a desalting column (PD10, washed with Dulbecco's phosphate-buffered saline [DPBS] 3× before use), followed by DPBS (3 mL). The purified ADC solution was filtered through a 0.2 micron, low protein-binding 13 mm syringe-filter and stored at 4° C.

B1: Ab8: mouse hybridoma anti-B7-H3 monoclonal antibody, mouse IgG1/k (antibody, V domains shown)
VH: EVKLVESGGGLVKPGGSLKLSCAASGFTFSSYGMSWVRQTPEKRLEWVATISGGGNYTYCPDSVKGRFTISRDNAKNNLYLQMSSLRSEDTALYYCTRQRGYDYHYAMDFWGQGTSVTVSS
VL: DIQMTQSPASLSVSVGETVTITCRASENIYSNLAWHQQKQGKSPQLLVYAATNLADGVPSRFSGNGSDTQYSLKINSLQSEDFGSYFCQNFWGTSWTFGGGTKLEIK
Turning to B1, the “huB7-H3 ka(1/Ms)” value with huB7-H3 came out at 58000 M⁻¹ s⁻¹. Also, in the data set with human B7-H3, the epitope grouping entry is “ambiguous”.

B2: Ab12: mouse hybridoma anti-B7-H3 monoclonal antibody, mouse IgG1/k (antibody, V domains shown)
VH: EVQLVESGGGLVKPGGSLKLSCAASGFTFSSYAMSWVRQTPEKRLEWVATISSGTNYTYYPDSVKGRFTISRDNAKNTLYLQMTSLRSEDTAMYYCARQGRYSWIAYWGQGTLVTVSA
VL: DIVLTQSPASLAVSLGQRATISCRASKSVSTSDYSYMHWNQQKPGQPPKLLIYLASNLESGVPARFSGSGSGTDFTLNIHPVEEEDAATYYCQHSRELLTFGAGTKLELK
On to B2, for which the “huB7-H3 ka(1/Ms)” value with huB7-H3 was 38000 M⁻¹ s⁻¹. In addition, the epitope grouping result with human B7-H3 is “ambiguous”.

B3: chAb2: chimeric anti-B7-H3 antibody huIgG1/k, parental hybridoma Ab2; VH SEQ ID NO: 1, VL SEQ ID NO: 5 (antibody, V domains shown)
VH: QVQLQQPGAELVKPGASVKLSCKASGYTFTSYWMHWVKQRPGQGLEWIGMIHPDSGTTNYNEKFRSKATLTVDKSSSTAYMQLSSLTSEDSAVYYCAVYYGSTYWYFDVWGTGTTVTVSS
VL: DVVMTQTPLSLPVSLGDQAYISCRSSQSLVHINGNTYLHWYRQKPGQSPKLLIYKVSNRFSGVPDRFSGSGSGTDFTLKISRVEAEDLGVYFCSQSTHFPFTFGSGTKLEIK
modifications: human IgG1/kappa constant regions; Synthetic chAb2 VH amino acid sequence; Synthetic chAb2 VL amino acid sequence
B3: the “cytotoxicity in cells expressing human B7-H3 / HCC38 cell line (in words)” value in the data set on HCC38 cell line is “weak cytotoxicity”. In addition, in data set [1], the “precipitation following conjugation to synthon CZ (in words)” value (“precipitation following conjugation” for short) is on record as “precipitated”.

B4: chAb6: chimeric anti-B7-H3 antibody huIgG1/k, parental hybridoma Ab6; VH SEQ ID NO: 56, VL SEQ ID NO: 60 (antibody, V domains shown)
VH: QVQLQQSGAELMKPGASVKISCKATGYTFSRYWIEWVKQRPGHGLEWIGEILPGSGSTNYNEKFKGKATFTADTSSNTAYMQVSSLTSEDSAVHYCARRGYGYVPYALDYWGQGTSVTVSS
VL: EIQMTQTTSSLSASLGDRVTISCRASQDISNSLNWYQQKPDGTVNLLIYYTSRLYSGVPSRFSGSGSGTDYSLTISNLEQEDIATYFCQQGNTLPYTFGGGTKLEIK
modifications: human IgG1/kappa constant regions; Synthetic chAb6 VH amino acid sequence; Synthetic chAb6 VL amino acid sequence
Take B4: the “cytotoxicity in cells expressing human B7-H3 / HCC38 cell line (in words)” value with HCC38 cell line was “weak cytotoxicity”. The “precipitation following conjugation” value in data set [1] is “precipitated”.

B5: chAb16: chimeric anti-B7-H3 antibody huIgG1/k, parental hybridoma Ab16; VH SEQ ID NO: 72, VL SEQ ID NO: 76 (antibody, V domains shown)
VH: EVKLLESGGGLVQPGGSLKLSCAASGFDFSRYWMSWVRQAPGKGLEWIGEINPDSSTINYTPSLKDKFIISRDNAKNTLYLQMSKVRSEDTALYYCARPGFGNYIYAMDYWGQGTSVTVSS
VL: DIQMTQTTSSLSASLGDRVTINCRASQDISNFLNWYQQKPDGTVKLLIYYTSRLYLGVPSRFSGSGSGTDYSLTISNLEQEDIATYFCQQGNTLPPTFGGGTKLEIK
modifications: human IgG1/kappa constant regions; Synthetic chAb16 VH amino acid sequence; Synthetic chAb16 VL amino acid sequence
On to B5, for which, in the data set with HCC38 cell line, the “cytotoxicity in cells expressing human B7-H3 / HCC38 cell line (in words)” value is listed as “weak cytotoxicity”. The “precipitation following conjugation” value in data set [1] is “precipitated”.

B6: Ab11: mouse hybridoma anti-B7-H3 monoclonal antibody, mouse IgG1/k (antibody, V domains shown)
VH: EVKLVESGGGLVQPGGSLRLSCATSGFTFTNYYMSWVRQPPGKALEWLGFIRNKANDYTTEYSASVKGRFTISRDNSQSILYLQMNTLRAEDSATYYCARESPGNPFAYWGQGTLVTVSA
VL: DIVMTQSPSSLTVTAGEKVTMTCKSSQSLLNSGTQKNFLTWYQQKPGQPPKLLIYWASTRESGVPDRFTGSGSGTDFTLTISSVQAEDLAVYFCQNDYIYPLTFGAGTKLELK
Turning to B6, the “huB7-H3 ka(1/Ms)” value with huB7-H3 was 20000 M⁻¹ s⁻¹. In addition, in the data set with human B7-H3, the epitope grouping entry is “ambiguous”.

The values above are taken from patent US20200002421A1, “ANTI-B7-H3 ANTIBODIES AND ANTIBODY DRUG CONJUGATES” (AbbVie Inc., priority 2016, published 2020).
